The source of these data is the RNAGym collection of RNA variant scans (doi:10.1093/nar/gkz1192).

To fix the notation:
B1: CPEB3 Ribozyme (parent)
chain: UAACAGGGGGCCACAGCAGAAGCGUUCACGUCGCAGCCCCUGUCAGAUUCUGGUGAAUCUGCGAAUUCUGCUGUAUAUCUC

The variants in this data set derive from B1. As to the kind of experiment: self-cleavage, relative activity (ratio to wild type); higher = more cleavage; in vitro, sequencing. In outline: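 After error-prone PCR and barcoding, CPEB3 ribozyme mutant libraries were transcribed with T7 RNA polymerase at 37°C for 5 hours, then given 15 min with DNase I before an EDTA stop, and they cleaved during both steps. Reverse transcription with template switching preceded Illumina sequencing. Relative activity divides a variant's cleaved/total read fraction by the unmutated ribozyme's. At least 5 reads were required per variant, and three batches were averaged.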
For A47G U72A, the self-cleavage stood at 0.64. As for A47G U72C, the figure is 1.12; as for A47G U72G, 0.35.

Regarding A47U U49C, the self-cleavage is 0.46. Regarding A47U U49A, the self-cleavage came to 0.41. The result for A47G U67A reads 0.49. The result for A47G U67G reads 0.34; that for A47G U67C, 0.35.

Regarding A47U G70A, the self-cleavage came to 0.13. As for A47U G70U, the figure is 0.14. The result for U48C U78A reads 0.86. In the case of U48C U78C, the self-cleavage turned out to be 0.54. As for U48C U78G, the figure is 0.94; as for A47U G63A, 0.29; as for G46U U78C, 0.27. Regarding U48A G55A, the self-cleavage stood at 0.21. Turning to U48C A65U, the self-cleavage worked out at 0.27. The result for U48C A65G reads 0.27; that for U48C A65C, 0.21.

Consider A47C U69C, for which the self-cleavage amounted to 0.25. The result for U48C C59U reads 0.39. As for U48C C59A, the figure is 0.19; as for A47G G55A, 0.75.

A47G G55C: the self-cleavage came out at 0.57. The result for A47G G55U reads 0.99; that for U49A A64U, 0.25; that for U49A A64G, 0.51. As for A47U U72A, the figure is 0.35; as for A47U U72C, 0.53; as for U48A U66A, 0.36. U48A U66G: the self-cleavage was 0.43.

As for U48A U66C, the self-cleavage came out at 0.16. The result for A47G C71U reads 0.87. As for U48C G53A, the figure is 0.69; as for A47U U76A, 0.82. A47U U76C: the self-cleavage stood at 0.59. On to A47C U80C, for which the self-cleavage stood at 0.43. As for A47G A65G, the figure is 0.4; as for A47G A65U, 0.49.

For the variant U48G A75G, the self-cleavage is 0.3.

Turning to A47C U78A, the self-cleavage was found to be 0.51. The result for A47C U78G reads 0.46; that for A47C U78C, 0.54. The result for A47G G73A reads 1.21. As for A47G G73U, the figure is 1.26. A47C C71U: the self-cleavage turned out to be 0.13. As for U48G U60G, the figure is 0.22; as for U48G U72A, 0.44.

Regarding U48G U72C, the self-cleavage worked out at 0.44. As for A47C C59U, the figure is 0.18; as for U48C A77U, 0.65; as for U48C A77C, 0.61.

U48C A77G: the self-cleavage is 0.6.

In the case of A47C G55U, the self-cleavage is 0.16.

U49A A65G: the self-cleavage worked out at 0.29.

With U49A A65C, the self-cleavage stood at 0.13.

A47G C59G: the self-cleavage was determined as 0.35. A47G C59A: the self-cleavage was found to be 0.29.

For the variant A47G U69A, the self-cleavage was 0.6. Consider A47G U69G, for which the self-cleavage is 0.68. As to A47G U69C, the self-cleavage came to 0.57. The result for A47C U67C reads 0.12; that for A47C U67A, 0.23.

For the variant A47U U54A, the self-cleavage was 0.72. As for A47U U54C, the figure is 0.37; as for U49A, 0.71; as for U48A U49A, 0.38.

Regarding U48A U49C, the self-cleavage turned out to be 0.3. As for U48A U49G, the figure is 0.21; as for U48C U72C, 0.7.

On to U48C U72A, for which the self-cleavage was 0.4. Regarding A47U U58C, the self-cleavage is 0.39.

U49A A56U: the self-cleavage was 1.19.

In the case of U49A A56G, the self-cleavage was 0.59. As for U48A C62U, the figure is 0.43; as for U48C U67A, 0.3; as for U48C U67C, 0.3.

Consider A47C A57G, for which the self-cleavage was 0.5. With A47C U74C, the self-cleavage came to 0.7. With A47U U80A, the self-cleavage came to 0.51. As for A47U U80C, the self-cleavage is 0.66. The result for A47U U80G reads 0.8; that for A47U A56U, 0.33; that for A47U A56G, 0.35. As for A47C U51A, the figure is 0.33. The result for A47G A75U reads 1.11; that for A47G A75G, 0.88; that for A47G A75C, 0.98. Turning to A47U U69A, the self-cleavage amounted to 0.34.

Take A47U U69C: the self-cleavage came out at 0.33.

With G46U U72G, the self-cleavage came out at 0.25. The result for G46U U72A reads 0.37; that for G46U U72C, 0.22; that for U48C C68G, 0.18. As for U48C C68A, the figure is 0.34; as for A47G U49C, 0.33; as for A47G U49A, 0.34. Regarding A47G U49G, the self-cleavage stood at 0.47.

With U48C U76C, the self-cleavage came out at 0.67.

As for U48C U76A, the self-cleavage amounted to 0.72. The result for U48G U49C reads 0.46. The result for U48G U49A reads 0.52; that for A47U G52A, 0.86; that for A47G G61A, 0.61. As for A47G G61U, the figure is 0.49. Regarding A47G G61C, the self-cleavage stood at 0.35. With U48A C50U, the self-cleavage turned out to be 0.35. As for A47C U76A, the figure is 0.48. As for U48G A65G, the figure is 0.23; as for A47C C62U, 0.18. As for A47U A57U, the figure is 0.64. On to A47U A57G, for which the self-cleavage was 0.32.

Regarding G46U U76C, the self-cleavage is 0.38.

Consider A47G C79U, for which the self-cleavage stood at 1.12. As for A47G C62A, the figure is 0.33; as for A47G C62U, 0.3; as for U48C U54C, 0.4. The result for U48C U54G reads 0.38. The result for U48C U54A reads 0.71. Take A47U C59A: the self-cleavage was found to be 0.17.

Turning to A47U C59U, the self-cleavage is 0.2. As for A47U G53U, the figure is 1.03. As for U48A U67C, the figure is 0.25; as for G46U U80C, 0.3; as for U48A A56U, 0.31. Take U48A A56G: the self-cleavage came out at 0.33.

In the case of U48A A56C, the self-cleavage stood at 0.26.

In the case of U48C U80C, the self-cleavage worked out at 0.68. The result for U48C U80A reads 0.68.

For the variant A47U C50A, the self-cleavage amounted to 0.23.

For U48C C79G, the self-cleavage worked out at 0.74. In the case of U48C C79A, the self-cleavage was 0.89. As for U48C C79U, the figure is 0.88.

Regarding A47C G73A, the self-cleavage came to 0.85. The result for A47U C68A reads 0.25. The result for U48G reads 0.5; that for U48A, 0.48; that for U48C, 0.65.

On to U48C A57U, for which the self-cleavage turned out to be 0.58. As for U48C A57C, the self-cleavage amounted to 0.5.

In the case of U48C A57G, the self-cleavage was 1.11. The result for U48A C71A reads 0.2; that for U48G U69A, 0.21; that for U48G U69C, 0.34. The result for A47G A57C reads 0.36. The result for A47G A57U reads 0.29; that for A47G A57G, 0.51; that for A47U U74C, 1.14. Regarding A47U U74G, the self-cleavage worked out at 0.96. As for A47U U74A, the figure is 0.64; as for U48G U80C, 0.6; as for A47C G63A, 0.56. As for A47U, the figure is 0.62; as for A47C, 0.4. On to A47G, for which the self-cleavage came out at 1.01. As for U48G A56G, the figure is 0.28. As for A47G A64G, the figure is 0.9. The result for A47G A64U reads 0.34; that for A47G U74G, 1.24. Regarding A47G U74C, the self-cleavage came to 1.13. The result for A47G U74A reads 1.21; that for U48A A65U, 0.15; that for U48A A65G, 0.4. On to U48C G70C, for which the self-cleavage stood at 0.21.

As for U48C G70A, the self-cleavage worked out at 0.19.

Turning to U48G U76A, the self-cleavage was 0.43. The result for A47U C62U reads 0.33.
